Source: patent publication US20180036395A1, “DOSAGE AND ADMINISTRATION OF MONOSPECIFIC AND BISPECIFIC ANTI-IGR-1R AND ANTI-ERBB3 ANTIBODIES” (Merrimack Pharmaceuticals, Inc., priority 2012, published 2018)

Tests used:
[1] = test system: HepG2 hepatocellular carcinoma cells; assay: HepG2 quantitative western blotting; format: cell-based, human; conditions: 2 hours or 6 hours, compared to either alone, FIG. 5
Method: Cells were treated with 500 nM P4-G1-M1.3, […] sorafenib or the combination for either 2 hours or 6 hours and quantitative western blotting was performed.
Buffer containing β-Mercaptoethanol (β-ME) is added and lysates are boiled for 5 minutes at 95° C. Approximately 40 μg of protein and two ladders (Invitrogen) are run on each well of an 18-well gel (BioRad). Gels are run at 150 volts constant for approximately 90 minutes and transferred to nitrocellulose membranes using the 8 minute transfer program of the iBlot® (Invitrogen) transfer system. Membranes are blocked in Odyssey® Blocking Buffer (Licor® Biosciences) for 1 hour at room temperature, and then incubated with primary antibodies overnight at 4° C. in 5% BSA in TBS-T. All antibodies are purchased from Cell Signaling and used at the recommended dilution. The following day membranes are washed 3×5 minutes each with TBS-T and then incubated with anti-Rabbit IgG—DyLight® 800 (Cell Signaling) or anti-Rabbit IRDye® 800 (Licor® Biosciences) at 1:10,000-15,000 in 5% milk in TBS-T for 1 hour at room temperature. Membranes were then washed 3×5 minutes each with TBS-T and scanned using the Licor® Odyssey® system (Licor® Biosciences). Intensities are quantified using Image Studio 2.0 and normalized to β-Actin levels. […]

melanoma = assay: Treatment of patients with melanoma; format: in vivo, human; conditions: vemurafenib or dabrafenib + P4-G1-M1.3
Method: (§1) P4-G1-M1.3 is formulated in 20 mM histidine, 100 mM arginine-HCl, 3% sucrose, at pH 5.5 supplemented with 0.002-0.02% of Tween® 80 at concentration range 5-15 mg/mL. P4-G1-M1.3 is administered to patients at 6 mg/kg, 12 mg/kg, 20 mg/kg, 30 mg/kg, 40 mg/kg, 50 mg/kg or 60 mg/kg q7d, ql4d, q21d, or q28d with a loading dose of 12 mg/kg, 20 mg/kg, 40 mg/kg, 40 mg/kg or 60 mg/kg Everolimus is administered to patients at 2.5 mg, 5 mg, or 10 mg orally once a day or once every other day.
Patients with melanoma are treated by administration of either monotherapy with an effective amount of vemurafenib (Zelboraf®) or an effective amount of P4-G1-M1.3, or with combination therapy comprising or consisting of administration of both the effective amount of vemurafenib or dabrafenib and the effective amount of P4-G1-M1.3. P4-G1-M1.3 is formulated and administered as described above in Example 1. Vemurafenib is given orally at 960 mg 1-2 times daily. Dabrafenib is administered as administered in dabrafenib phase III clinical trials.

[2] = test system: non-small cell lung cancer (NSCLC); assay: Treatment of patients with non-small cell lung cancer; format: in vivo, human; conditions: everolimus + P4-G1-M1.3
Method: as §1
Patients with non-small cell lung cancer (NSCLC) are treated by administration of either monotherapy with an effective amount of everolimus or an effective amount of P4-G1-M1.3, or with combination therapy comprising or consisting of administration of both the effective amount of everolimus and the effective amount of P4-G1-M1.3. P4-G1-M1.3 and everolimus are prepared and dosed as described in Example 1.

[3] = test system: locally advanced or metastatic breast cancer; assay: Treatment of patients with locally advanced or metastatic breast cancer; format: in vivo, human
Method: as §1
Patients with estrogen receptor positive or progesterone receptor positive or triple negative breast cancers that are locally advanced or metastatic, or with any of the tumor types listed in Examples 5-10, are treated with a combination of an effective amount of i) any of the mTOR inhibitors of the preceding examples (at doses as described therein), or with a pan-mTOR inhibitor (INK128, CC223, OSI207, AZD8055, AZD2014, or Palomid529) and ii) an effective amount of P4-G1-M1.3. Patients are dosed with P4-G1-M1.3 as described in Example 1. The dose of pan-mTOR inhibitor is the dose used in phase I or, preferably phase II or III clinical trials.
Postmenopausal women with estrogen receptor-positive locally advanced or metastatic breast cancer are treated with a combination of an effective amount of PI3K inhibitor (e.g., XL147 or BKM120) and an effective amount of P4-G1-M1.3. Patients are dosed with P4-G1-M1.3 as described in Example 1. XL147 is dosed at 25, 50, 100, or 200 mg orally once a day for 21 consecutive days. Alternately BKM120 is dosed at […] orally once a day for 28 consecutive days.
Women with estrogen or progesterone receptor positive locally advanced or metastatic breast cancer are treated with a combination therapy comprising or consisting of administration of an effective amount of an antihormonal therapy (such as tamoxifen, exemestane, letrozole or fulvestrant) and administration of an effective amount of P4-G1-M1.3. P4-G1-M1.3 is formulated and administered as described above. Antihormonal therapy is administered in accordance with manufacturer's directions.
Women with estrogen or progesterone receptor positive locally advanced or metastatic breast cancer are treated with a combination of an effective amount of PI3K/mTOR dual inhibitor NVP-BEZ235 and an effective amount of P4-G1-M1.3. Patients are dosed with P4-G1-M1.3 as described in Example 1. NVP-BEZ235 is given orally twice daily at doses of 400 mg, 600 mg, or 800 mg.
Women with locally advanced or metastatic breast cancer are treated with a combination of an effective amount of docetaxel (Taxotere®) and an effective amount of P4-G1-M1.3. Patients are dosed with P4-G1-M1.3 as described in Example 1. Patients are dosed with docetaxel at 25, 50, 75 or 100 mg/m^2 i.v. once every 3 weeks or per standard clinical practice.
Patients with metastatic breast cancer are treated with a combination of an effective amount of paclitaxel (Taxol®) or of eribulin and an effective amount of P4-G1-M1.3. Patients are dosed with P4-G1-M1 as described in Example 1. Patients are dosed per standard clinical practice for paclitaxel or eribulin.

B1: P4-G1-M1.3: anti-IGF-1R+anti-ErbB3 polyvalent bispecific antibody, IgG1-(scFv)2 (SEQ ID NO:148 and SEQ ID NO:149) (protein)
chain 1: EVQLLQSGGGLVQPGGSLRLSCAASGFLFSSYPMHWVRQAPGKGLEWVGSISPSGGATPYADSVKGRFTISRDNSKNTLYLQMNSLRPEDTAVYYCAKDFYNILTGNAFDKWGQGTSVTVSSASTGGGGSGGGGSGGGGSGGGGSDIQLTQSPSSLSASLGDRVTITCRASQGISSYLAWYQQKPGKAPKLLIYAGSTPQSGVPSRFSGSGSGTEFTLTISSLQPEDSGTYYCQQYWTWPLTFGGGTKVEIKRT
chain 2: EVQLVESGGGLVQPGRSLRLSCAASGFTFDDYAMHWVRQAPGKGLEWVSGISWNSGSTGYADSVKGRFTISRDNAKNSLYLQMNSLRAEDTALYYCARDLGYNQWLEGFDYWGQGTLVTVSSASTGGGGSGGGGSGGGGSGGGGSSSELTQDPAVSVALGQTVRITCQGDSLRSYYASWYQQKPGQAPVLVIYGKNNRPSGIPDRFSGSSSGNTASLTITGAQAEDEADYYCMSRDHPGNQWVFGGGTKVTVLG
modifications: Synthetic polypeptide:Anti-IGF-1R scFvs M76; Synthetic polypeptide:Anti-ErbB3 scFvs P6L
downstream signaling (pErbB3, pAkt Ser473, pERK1/2) ([1]; combination of 500 nM P4-G1-M1.3 and 504 sorafenib): inhibits downstream signaling
ErbB3 level ([1]; combination of 500 nM P4-G1-M1.3 and sorafenib): downregulation of ErbB3
treatment outcome (melanoma): combinatorially enhanced outcome
treatment outcome [2]: combinatorially enhanced outcome
treatment outcome ([3]; ER or PR positive breast cancer, NVP-BEZ235 + P4-G1-M1.3): combinatorially enhanced outcome
treatment outcome ([3]; ER or PR positive breast cancer, antihormonal therapy (tamoxifen, exemestane, letrozole or fulvestrant) + P4-G1-M1.3): combinatorially enhanced outcome
treatment outcome ([3]; ER positive, PR positive or triple negative breast cancers (or tumor types of Examples 5-10), mTOR or pan-mTOR inhibitor + P4-G1-M1.3): combinatorially enhanced outcome
treatment outcome ([3]; metastatic breast cancer, paclitaxel or eribulin + P4-G1-M1.3): combinatorially enhanced outcome
treatment outcome ([3]; postmenopausal women, ER-positive breast cancer, PI3K inhibitor (XL147 or BKM120) + P4-G1-M1.3): combinatorially enhanced outcome
treatment outcome ([3]; women with locally advanced or metastatic breast cancer, docetaxel + P4-G1-M1.3): combinatorially enhanced outcome
